Results on 1 molecule are retold here after US20100062512A1 (CRUCELL HOLLAND B V, published 2010).

The assay deals with T1, Factor XI from DEAE treated human plasma (human, UniProt P03951 19-625).
T1 construct: mature; Plasma-derived, not purified when it was loaded on the Protein G column; also called FXI
Put plainly: Protein G column chromatography of 25 ml DEAE treated human plasma. Here is the method:
Therefore, 25 ml DEAE treated human plasma was subjected to a 1 ml Protein G column, to which IgG's selectively bound while more than 99% of the loaded Factor XI appeared in the flowthrough. Thus, a biological fluid containing Factor XI and depleted of IgG's was obtained.

T1 sequence (P03951 19-625 limits assumed): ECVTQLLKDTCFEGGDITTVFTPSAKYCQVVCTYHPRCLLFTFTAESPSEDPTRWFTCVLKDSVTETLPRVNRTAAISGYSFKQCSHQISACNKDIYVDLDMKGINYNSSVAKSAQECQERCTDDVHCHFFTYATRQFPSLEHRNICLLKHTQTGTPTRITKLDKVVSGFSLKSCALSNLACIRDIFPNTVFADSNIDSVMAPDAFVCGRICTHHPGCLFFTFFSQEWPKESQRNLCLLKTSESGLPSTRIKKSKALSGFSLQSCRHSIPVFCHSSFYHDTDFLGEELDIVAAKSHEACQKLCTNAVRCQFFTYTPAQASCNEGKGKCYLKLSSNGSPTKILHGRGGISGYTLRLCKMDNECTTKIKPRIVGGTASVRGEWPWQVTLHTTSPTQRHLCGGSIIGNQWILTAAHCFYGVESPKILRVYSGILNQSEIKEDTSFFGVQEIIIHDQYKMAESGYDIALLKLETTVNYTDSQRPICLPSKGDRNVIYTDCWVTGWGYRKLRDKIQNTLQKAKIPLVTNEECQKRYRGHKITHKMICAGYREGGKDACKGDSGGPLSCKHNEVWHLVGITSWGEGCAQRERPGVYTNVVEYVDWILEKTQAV

B1: Protein G (1 ml Protein G column) (other, UniProt P19909 303-497, looked up)
chain: TYKLILNGKTLKGETTTEAVDAATAEKVFKQYANDNGVDGEWTYDDATKTFTVTEKPEVIDASELTPAVTTYKLVINGKTLKGETTTEAVDAATAEKVFKQYANDNGVDGEWTYDDATKTFTVTEKPEVIDASELTPAVTTYKLVINGKTLKGETTTKAVDAETAEKAFKQYANDNGVDGVWTYDDATKTFTVTE
notes: Immobilised Protein G
For B1, the binding result is listed as “no binding (tested: more than 99% in flowthrough)”.
